Source: the supplement of paper PMC10567573

B1: SMOC2 (parent)
chain: QKPLCASDGRTFLSRCEFQRAKCK
B2: SFRS1 (parent)
chain: RDIDLKNRRGGPPFAFVEFEDPRD

Variants of: B1
Test: protein stability index of a GFP-peptide fusion (GPS, HEK-293T) (PSI 1-6); higher = more stable
Conditions: c terminus: a fixed tail appended
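Further: lentivirally expressed fusions sorted by FACS into six bins by GFP to DsRed ratio, PSI derived from sequencing read proportions per bin multiplied by bin number.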

Protein stability index: each site, then its substitutions
D8: F 1.94
P3: L 2.67
R20: M 3.57
C16: A 3.39
S14: P 4.08
S7: R 2.38; T 2.5
R15: N 3.09
K22: Y 2.46; Q 3
Q1: F 3.05; R 2.76
K2: M 3.87
E17: K 3.19
C23: F 1.88; H 3.92
F18: V 4.01
Q19: L 2
G9: E 3.48
A21: Q 3.24; R 3.18; E 3.1

Variants of: B2
Test: as above
Conditions: c terminus: a fixed tail appended

Protein stability index of substitutions, site by site:
D2: Y 2.76; N 3.41; I 2.68; S 3.6; P 3.51; K 3.12; M 3.29; H 3.19; L 2.62; E 4.06; G 3.06; A 2.59; Q 3.25; R 3.34; V 3.28
L5: K 3.81; F 3.35; I 3.67; V 3.94; T 3.72; E 4.49; Q 4.13; R 3.35; S 4.06; M 3.93; A 4.09; H 3.59; Y 3.3
I3: S 3.45; P 3.98; G 4.15; R 3.6; M 3.57; K 3.77; E 4.71; C 3.75; W 3.95; Q 4.1; D 4.57; A 4.29; N 3.81
K6: M 4.07; A 4.18; T 4.02; W 3.79; E 4.28; Q 4.22; V 4.09; R 3.47; F 3.61; N 4.04; C 3.91; Y 3.78
R23: P 4.53; Q 4.15; I 3.67; S 4.07; H 4.17; W 3.62; K 4.14; A 3.88; L 3.72; M 3.79; D 4.18; G 3.84; Y 3.19; T 4.33; V 3.45
A15: H 4.46; L 3.76; W 3.7; P 4.31; G 4.63; R 2.25; D 4.44; V 3.58; S 4.22; C 3.83; K 4.56; Q 4.79; T 4.54; E 5.13; F 3.12; M 3.84
P13: G 3.86; E 4.83; V 3.37; S 4.57; N 4.59; C 4.51; Y 4; H 4.65; Q 4.79; I 3.34; T 4.34; K 4.02; A 4.62
G10: E 4.2; P 3.73; A 3.76; W 2.77; S 4.21; V 3.71; M 3.51; T 4.3; L 3.51; C 3.22; I 3.41
D4: F 2.81; P 3.08; M 3.4; T 3.28; E 3.61; Y 2.92; C 3.33; V 2.85; S 3.83; K 3.47; L 3.42; A 3.11
F16: I 4.36; Y 4.26; E 5.2; N 4.91; R 5; P 5.26; C 4.45; M 4.88; W 3.97; D 5.04; A 5.03; S 4.7; Q 5; K 4.89
P12: H 4.53; Q 4.17; Y 3.98; D 5.06; K 4.42; W 3.43; F 3.5; R 3.93; L 3.5; T 4.37; A 4.12; M 3.93
N7: E 4.26; I 3.63; W 3.28; F 2.76; M 3.26; G 4.16; K 3.41; Y 3.02; R 3.1; P 3.78; L 3.39; C 3.56; D 4.54; H 3.61; S 3.5
V17: F 4.64; M 4.24; Y 4.42; S 4.16; E 4.95; R 4.33; K 4.62; W 3.92; D 4.77; N 4.62; T 4.75; C 4.2; Q 4.61; L 4.13
D24: I 2.72; A 3.74; V 3.11; M 2.64; C 2.46; G 3.47; K 3.65; Y 2.5; S 3.02; T 3.13; W 1.33; R 3.19
R8: I 4.08; P 4.19; S 4.32; G 4.46; W 3.71; T 4.33; H 3.71; C 4.23; Q 4.18; K 4.13; V 4.17; Y 3.96
G11: I 3; N 3.83; S 4.17; F 3; W 3.1; V 3.89; K 3.78; R 3.25; Q 3.47; P 3.36; T 3.87; A 4.11; D 4.23
E20: A 3.06; Y 2.46; K 3.52; R 2.91; T 3.3; Q 2.91; W 2.72; I 2.56; S 2.89; H 3.21; P 3.66; N 3.68; M 2.57
E18: I 2.24; T 2.74; K 2.64; N 3.24; A 2.18; V 2.2; M 2.35; L 1.9; H 2.51; S 2
F19: V 3.03; D 3.69; P 3.85; H 3.95; E 4.77; N 3.38; K 3.18; Q 3.94; S 3.19; L 4.22; T 3.47
R1: C 4.2; P 3.81; V 3.97; E 4.36; M 4.04; Y 3.65; F 3.19; Q 3.96; W 2.69; N 4.2; L 4.21; G 4.01
P22: K 4.09; Q 4.44; G 4.03; H 3.63; E 4.43; T 3.99; F 2.9; W 3.55; S 3.93; V 3.76
R9: K 3.69; E 4.18; Q 4.11; M 4.04; D 4.43; N 4.5; F 3.94; G 4.11; Y 3.91; S 4.12; W 4.23; V 4.21; T 4.03; P 4.16; I 4.24
F14: Y 4.28; D 4.86; N 4.58; H 5.01; G 4.92; A 5.04; P 5.05; S 5.3; E 5.48; K 4.51; C 4.91; M 4.26
D21: A 3.1; T 3.72; I 2.63; G 2.55; L 2.51; R 3.08; E 3.99; V 3.02; P 3.45; H 3.34; F 2.65; M 2.8; S 3.26; Y 3.18; N 3.38; Q 3.54; W 2.95
